Results as given in US20120088722A1.
Ends that are not written are not given here.

Assays:
[1] = biological target: hypertrophic cartilage tissue extract; test: fluorescent peptide (100 nM) binding to plate-dried cartilage CHAPS extract, reference scrambled peptide
[2] = biological target: resting cartilage tissue extract; test: as above
[3] = biological target: extracellular matrix of whole cell primary chondrocyte cultures; test: fluorescent peptide binding to extracellular matrix of hypertrophic chondrocyte monolayer cultures, reference scrambled peptide

| fold binding over scrambled peptide control [2] | Binder | fold binding over scrambled peptide control [1] | fold binding compared to scrambled peptide [3] |
| --- | --- | --- | --- |
| < 2 fold | LRGETMIFKD (also: fluorescent label (label and position not given here)) [MMP13-10 peptide (amino acids 17-26 of SEQ ID NO: 1)] | < 2 fold | 4 fold |
| 5 fold | ELGLPKEVKKISAAVHFED (also: fluorescent-labeled in binding assay, label and position not given here) [MMP13-19 peptide (amino acids 93-111 of SEQ ID NO: 1)] | 9 fold | 8 fold |
